Assay results as given in US20220281980A1 (Bristol-Myers Squibb, published 2022).

T1: human MICA/B endogenously expressed on 786-O cells (MICA allele *008) (human, UniProt Q29983 24-331)
T1 construct: it speaks of MICA/B, so MICB may be present as well; also called 786-0
T1 chain: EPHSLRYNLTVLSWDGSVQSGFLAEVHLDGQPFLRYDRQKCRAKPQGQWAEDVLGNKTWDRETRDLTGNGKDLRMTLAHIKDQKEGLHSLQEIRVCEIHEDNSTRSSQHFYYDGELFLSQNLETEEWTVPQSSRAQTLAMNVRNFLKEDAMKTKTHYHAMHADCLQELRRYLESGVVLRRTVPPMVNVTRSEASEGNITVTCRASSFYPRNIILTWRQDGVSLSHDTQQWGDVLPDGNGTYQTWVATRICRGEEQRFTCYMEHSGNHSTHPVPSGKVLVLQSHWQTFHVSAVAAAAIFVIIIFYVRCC

T2: human MICA/B endogenously expressed on RPMI-8226 cells (human, UniProt Q29983 24-383)
T2 construct: whole, on cells
T2 sequence (looked up): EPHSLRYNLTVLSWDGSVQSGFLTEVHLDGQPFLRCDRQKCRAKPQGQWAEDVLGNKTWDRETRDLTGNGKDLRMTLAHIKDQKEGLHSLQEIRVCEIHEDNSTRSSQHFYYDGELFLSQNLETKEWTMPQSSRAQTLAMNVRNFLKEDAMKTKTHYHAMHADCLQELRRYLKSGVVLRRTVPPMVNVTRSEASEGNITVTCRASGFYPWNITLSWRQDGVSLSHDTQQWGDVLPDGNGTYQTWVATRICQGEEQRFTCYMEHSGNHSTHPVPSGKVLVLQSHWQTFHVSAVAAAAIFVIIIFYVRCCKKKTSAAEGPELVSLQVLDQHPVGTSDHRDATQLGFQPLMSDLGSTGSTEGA

T3: human MICA/B endogenously expressed on HeLa cells (MICA allele *008) (human, UniProt Q29983 24-331)
T3 construct: it speaks of MICA/B, so MICB may be present as well
T3 chain: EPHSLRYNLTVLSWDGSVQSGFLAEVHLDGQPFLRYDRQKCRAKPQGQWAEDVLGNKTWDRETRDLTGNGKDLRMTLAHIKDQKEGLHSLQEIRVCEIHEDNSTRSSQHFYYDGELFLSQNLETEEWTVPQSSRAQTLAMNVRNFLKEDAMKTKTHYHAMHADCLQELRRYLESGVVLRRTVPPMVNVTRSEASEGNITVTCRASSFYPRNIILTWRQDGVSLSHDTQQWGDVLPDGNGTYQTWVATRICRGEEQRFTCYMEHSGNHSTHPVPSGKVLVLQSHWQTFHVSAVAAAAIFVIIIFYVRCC

T4: recombinant soluble human MICA*008 antigen (human, UniProt Q29983 24-307)
T4 construct: also called huIMICA-his allele *008; recombinant soluble MICA (allele 8)
T4 chain: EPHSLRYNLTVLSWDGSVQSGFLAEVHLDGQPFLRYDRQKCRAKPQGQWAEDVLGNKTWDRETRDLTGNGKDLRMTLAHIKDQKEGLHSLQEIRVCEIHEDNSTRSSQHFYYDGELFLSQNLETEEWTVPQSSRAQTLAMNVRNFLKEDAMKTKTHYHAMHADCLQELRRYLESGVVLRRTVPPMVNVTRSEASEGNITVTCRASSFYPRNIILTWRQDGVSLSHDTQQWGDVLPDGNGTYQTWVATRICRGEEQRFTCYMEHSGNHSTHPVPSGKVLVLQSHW

T5: human MICA*004 expressed on CHO cells (human, UniProt Q29983 24-383)
T5 construct: also called MICA allele 004
T5 chain: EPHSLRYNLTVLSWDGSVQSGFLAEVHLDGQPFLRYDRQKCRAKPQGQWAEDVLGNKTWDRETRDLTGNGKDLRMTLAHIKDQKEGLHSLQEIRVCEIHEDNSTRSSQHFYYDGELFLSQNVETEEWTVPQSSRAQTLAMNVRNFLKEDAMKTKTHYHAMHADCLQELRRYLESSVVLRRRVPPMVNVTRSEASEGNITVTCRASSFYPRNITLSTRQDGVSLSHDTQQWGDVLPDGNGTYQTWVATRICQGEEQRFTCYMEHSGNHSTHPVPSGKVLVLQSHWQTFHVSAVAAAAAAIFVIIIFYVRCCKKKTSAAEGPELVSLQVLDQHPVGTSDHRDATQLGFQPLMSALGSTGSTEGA

T6: human MICA*009 expressed on CHO cells (human, UniProt Q29983 24-382)
T6 construct: also called MICA allele 009
T6 chain: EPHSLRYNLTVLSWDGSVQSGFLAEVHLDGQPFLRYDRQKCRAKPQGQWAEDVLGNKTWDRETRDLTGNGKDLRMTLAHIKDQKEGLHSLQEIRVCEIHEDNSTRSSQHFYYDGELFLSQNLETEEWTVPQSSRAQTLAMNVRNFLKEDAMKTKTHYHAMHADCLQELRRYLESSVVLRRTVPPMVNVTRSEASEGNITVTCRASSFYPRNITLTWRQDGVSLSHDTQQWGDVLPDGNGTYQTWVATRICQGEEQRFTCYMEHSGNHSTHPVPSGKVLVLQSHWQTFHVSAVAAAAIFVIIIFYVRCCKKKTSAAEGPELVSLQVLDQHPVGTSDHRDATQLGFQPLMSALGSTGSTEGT

T7: human MICA*010 expressed on CHO cells (human, UniProt Q29983 24-383)
T7 construct: also called MICA allele 010
T7 chain: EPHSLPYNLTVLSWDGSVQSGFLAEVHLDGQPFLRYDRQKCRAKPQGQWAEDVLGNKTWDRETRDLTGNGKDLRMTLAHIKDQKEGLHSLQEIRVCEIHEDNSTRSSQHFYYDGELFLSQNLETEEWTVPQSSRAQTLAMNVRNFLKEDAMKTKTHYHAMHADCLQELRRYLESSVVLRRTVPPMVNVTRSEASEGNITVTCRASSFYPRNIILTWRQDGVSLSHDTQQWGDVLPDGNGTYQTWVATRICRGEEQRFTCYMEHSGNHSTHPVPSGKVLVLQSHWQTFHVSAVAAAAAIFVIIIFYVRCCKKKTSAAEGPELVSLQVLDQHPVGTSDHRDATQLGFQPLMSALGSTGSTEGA


How the values were obtained:
[1] = biological target: T1, human MICA/B endogenously expressed on …; test: flow cytometry, tumor cells with endogenous MICA/B
[2] = biological target: T2, human MICA/B endogenously expressed on …; test: flow cytometry, tumor cells with endogenous MICA/B
[3] = biological target: T3, human MICA/B endogenously expressed on …; test: flow cytometry, tumor cells with endogenous MICA/B
[4] = biological target: T4, recombinant soluble human MICA*008 …; test: BLI (Octet) sandwich binning on soluble MICA allele 8, row antibody captured; competitor (second antibody): MICA.38
Procedure: (§1) The binning experiments were performed on an Octet HTX instrument at 25° C. in HEPES buffered saline (10 mM HEPES pH 7.4, 150 mM NaCl, 0.05% v/v surfactant P20, and 1 mg/mL BSA). Anti-MICA/B antibodies and NKG2D-mFc were captured on anti-Fc tips and remaining capture sites were blocked with an excess of negative control IgG. Recombinant soluble MICA (allele 8) was bound and subsequent binding (“sandwiching”) of anti-MICA/B antibodies was tested.

[5] = biological target: T5, human MICA*004 expressed on CHO cells; test: flow cytometry, transfected CHO cells
[6] = biological target: T6, human MICA*009 expressed on CHO cells; test: flow cytometry, transfected CHO cells
[7] = biological target: T7, human MICA*010 expressed on CHO cells; test: flow cytometry, transfected CHO cells
[8] = biological target: T4, recombinant soluble human MICA*008 …; test: BLI (Octet) sandwich binning on soluble MICA allele 8, row antibody captured; competitor (second antibody): 24G11
Procedure: as §1

Row | EC50 [1] [nM] | EC50 [2] [nM] | EC50 [3] [nM] | simultaneous binding (0 = no, 1 = yes) [4] | EC50 [5] [nM] | EC50 [6] [nM] | EC50 [7] [nM] | simultaneous binding (0 = no, 1 = yes) [8] | Binder
1 | 4.95 | 41.9 | 1.74 | 0 | 2.94 | 1.56 | 6.91 | 1 | MICA.2 (antibody, human IgG1, kappa, V domains shown, 3F5 variable regions on human IgG1f and human kappa constant regions, made in CHO-S cells; also called 3F5; recombinant antibody of 3F5) VH: EVQLVESGGGLVQPGGSLRLSCAASGFTFSTYSMNWVRQAPGKGLEWVSYISYRSRTIYYADSVKGRFTISRDNARNSLYLQMNSLRDEDTAVYYCARWGYGSGGFDYWGQGTLVTVSS VL: not shown
2 | 13.8 | 36.9 | 10.2 |  | 26.2 | 10.2 | 80 |  | 71C2 (antibody, V domains shown, Hybridoma antibody) VH: EVQLVESGGGLVQPGRSLRLSCAASGFTFNNYAMHWVRQAPGKGLEWVSGITWNSDSIGYADSVKGRFTISRDNAKNSLYLQMNSLRAEDTALYYCAKDSVLLWFGGMDVWGQGTTVTVSS VL: not shown
3 | 147 | 104 | 192 | 1 | 518 | 497 | 722 | 0 | 24G11 (antibody, V domains shown, also called MICA.54; 24G11 (MICA.54)) VH: EVQLVQSGAEVKKPGESLKISCKGSGYSFTNYWIGWVRQMPGKGLEWLGIIHPGDSYTRYSPSFQGQVTISADKSISTAYLQWSSLKASDTAIYYCAREGIAATPFDYWGQGTLVTVSS VL: EIVLTQSPATLSLSPGERATLSCRASQSVSSYLAWFQQKPGQAPRLLIYDASNRATGIPARFSGSGSGTDFTLTISSLEPEDFAVYYCQQRSNWPPTFGQGTKVEIK
4 |  |  |  | 1 |  |  |  | 0 | MICA.36 (antibody, V domains shown, it says that the name implies no specific constant region; Radioiodinated in the Scatchard assay; also called MICA.36 antibody) VH: QVQLVESGGGVVQPGRSLRLSCAASGFTFSNYAMHWVRQAPGEGLEWVALIWYDGSNKFYGDSVKGRFTISRDNSKNTLYLQMNSLSAEDTAVYYCAREGSGHYWGQGTLVTVSS VL: AIQLTQSPSSLSASVGDRVTITCRASQGISSALAWYQQKPGKVPKSLIYDASSLESGVPSRFSGSGSGTDFTLTISSLQPEDFATYYCQQFNSYPITFGQGTRLEIK
5 | 1.37 | 3.89 | 1.76 |  | 11.4 | 8.21 | 18.5 |  | 19G6 (antibody, V domains shown, Hybridoma antibody from human IgG transgenic mice, parent of MICA.36; also called 19G6 mAb; hybridoma 19G6) VH: QVQLVESGGGVVQPGRSLRLSCAASGFTFSNYAMHWVRQAPGEGLEWVALIWYDGSNKFYGDSVKGRFTISRDNSKNTLYLQMNSLSAEDTAVYYCAREGSGHYWGQGTLVTVSS VL: AIQLTQSPSSLSASVGDRVTITCRASQGISSALAWYQQKPGKVPKSLIYDASSLESGVPSRFSGSGSGTDFTLTISSLQPEDFATYYCQQFNSYPITFGQGTRLEIK
